In paper PMC12102759 (2025):

B1: RNF115 peptide 67-82 (E3 ubiquitin-protein ligase RNF115), 16-mer library wild type / MDM2 SWIB (MDM2 SWIB/MDM2 domain, residues 17-125) (parent complex)
chain 1: TTTHFAELWGHLDHTM
chain 2: SQIPASEQETLVRPKPLLLKLLKSVGAQKDTYTMKEVLFYLGQYIMTKRLYDEKQQHIVYCSNDLLGDLFGVPSFSVKEHRKIYTMIYRNLVVVNQQESSDSGTSVSEN

Variants of: B1
Experiment: proteomic peptide phage display deep mutational scan (ProP-PD DMS): M13 P8 16-mer library selected against immobilised GST-tagged bait for four days (rounds), NGS of the eluted pools per day and pseudo-replica; bait immobilised on MaxiSorp plates (10 µg), library pre-cleared on GST, 2 h binding at 4 °C, five washes; one round per day, days 1-4; value from days 2 and 3

Q: For chain 1 G10W, which screen value is on record?
A: 0.000571 average fractional NGS count over selection days 2 and 3 (reads of this peptide / all reads for the bait, averaged over …

Q: For chain 1 G10Y, which screen value is on record?
A: 0.000227 average fractional NGS count over selection days 2 and 3 (reads of this peptide / all reads for the bait, averaged over …

Q: Which screen value does the source give for chain 1 G10L here?
A: 0.000164 average fractional NGS count over selection days 2 and 3 (reads of this peptide / all reads for the bait, averaged over …

Q: With chain 1 G10Q as the variant, how does the screen value read?
A: 0.000894 average fractional NGS count over selection days 2 and 3 (reads of this peptide / all reads for the bait, averaged over …

Q: Which screen value does the source give for chain 1 G10N here?
A: 0.000457 average fractional NGS count over selection days 2 and 3 (reads of this peptide / all reads for the bait, averaged over …

Q: How did the screen value turn out when chain 1 G10I was run?
A: 7.33e-05 average fractional NGS count over selection days 2 and 3 (reads of this peptide / all reads for the bait, averaged over …

Q: For chain 1 G10T, which screen value is on record?
A: 0.000148 average fractional NGS count over selection days 2 and 3 (reads of this peptide / all reads for the bait, averaged over …

Q: With chain 1 L8M as the variant, how does the screen value read?
A: 0.000104 average fractional NGS count over selection days 2 and 3 (reads of this peptide / all reads for the bait, averaged over …

Q: For chain 1 L8I, which screen value is on record?
A: 7.89e-05 average fractional NGS count over selection days 2 and 3 (reads of this peptide / all reads for the bait, averaged over …

Q: With chain 1 L8W as the variant, how does the screen value read?
A: 0.00339 average fractional NGS count over selection days 2 and 3 (reads of this peptide / all reads for the bait, averaged over …

Q: chain 1 L8Y was tested. Which screen value did it give?
A: 0.0291 average fractional NGS count over selection days 2 and 3 (reads of this peptide / all reads for the bait, averaged over …

Q: chain 1 T2V was tested. Which screen value did it give?
A: 0.000589 average fractional NGS count over selection days 2 and 3 (reads of this peptide / all reads for the bait, averaged over …

Q: How did the screen value turn out when chain 1 T2A was run?
A: 0.00136 average fractional NGS count over selection days 2 and 3 (reads of this peptide / all reads for the bait, averaged over …

Q: chain 1 T2H was tested. Which screen value did it give?
A: 0.000527 average fractional NGS count over selection days 2 and 3 (reads of this peptide / all reads for the bait, averaged over …

Q: With chain 1 T2Q as the variant, how does the screen value read?
A: 0.00139 average fractional NGS count over selection days 2 and 3 (reads of this peptide / all reads for the bait, averaged over …

Q: How did the screen value turn out when chain 1 T2G was run?
A: 0.00135 average fractional NGS count over selection days 2 and 3 (reads of this peptide / all reads for the bait, averaged over …

Q: With chain 1 T2E as the variant, how does the screen value read?
A: 0.0056 average fractional NGS count over selection days 2 and 3 (reads of this peptide / all reads for the bait, averaged over …

Q: For chain 1 T2S, which screen value is on record?
A: 0.000484 average fractional NGS count over selection days 2 and 3 (reads of this peptide / all reads for the bait, averaged over …

Q: chain 1 T2Y was tested. Which screen value did it give?
A: 0.000215 average fractional NGS count over selection days 2 and 3 (reads of this peptide / all reads for the bait, averaged over …

Q: chain 1 T2I was tested. Which screen value did it give?
A: 0.00157 average fractional NGS count over selection days 2 and 3 (reads of this peptide / all reads for the bait, averaged over …

Q: chain 1 H11A was tested. Which screen value did it give?
A: 0.0021 average fractional NGS count over selection days 2 and 3 (reads of this peptide / all reads for the bait, averaged over …

Q: How did the screen value turn out when chain 1 H11L was run?
A: 0.00334 average fractional NGS count over selection days 2 and 3 (reads of this peptide / all reads for the bait, averaged over …

Q: For chain 1 H11Y, which screen value is on record?
A: 0.00946 average fractional NGS count over selection days 2 and 3 (reads of this peptide / all reads for the bait, averaged over …

Q: For chain 1 H11Q, which screen value is on record?
A: 0.00312 average fractional NGS count over selection days 2 and 3 (reads of this peptide / all reads for the bait, averaged over …

Q: With chain 1 H11F as the variant, how does the screen value read?
A: 0.00626 average fractional NGS count over selection days 2 and 3 (reads of this peptide / all reads for the bait, averaged over …

Q: chain 1 H11W was tested. Which screen value did it give?
A: 0.00259 average fractional NGS count over selection days 2 and 3 (reads of this peptide / all reads for the bait, averaged over …

Q: How did the screen value turn out when chain 1 H11R was run?
A: 0.000902 average fractional NGS count over selection days 2 and 3 (reads of this peptide / all reads for the bait, averaged over …

Q: For chain 1 M16E, which screen value is on record?
A: 0.000437 average fractional NGS count over selection days 2 and 3 (reads of this peptide / all reads for the bait, averaged over …

Q: With chain 1 M16I as the variant, how does the screen value read?
A: 0.000492 average fractional NGS count over selection days 2 and 3 (reads of this peptide / all reads for the bait, averaged over …

Q: With chain 1 M16A as the variant, how does the screen value read?
A: 9.05e-05 average fractional NGS count over selection days 2 and 3 (reads of this peptide / all reads for the bait, averaged over …

Q: Which screen value does the source give for chain 1 M16Q here?
A: 0.000223 average fractional NGS count over selection days 2 and 3 (reads of this peptide / all reads for the bait, averaged over …

Q: Which screen value does the source give for chain 1 M16Y here?
A: 0.000534 average fractional NGS count over selection days 2 and 3 (reads of this peptide / all reads for the bait, averaged over …

Q: With chain 1 H4E as the variant, how does the screen value read?
A: 0.000591 average fractional NGS count over selection days 2 and 3 (reads of this peptide / all reads for the bait, averaged over …

Q: chain 1 H4Y was tested. Which screen value did it give?
A: 0.000766 average fractional NGS count over selection days 2 and 3 (reads of this peptide / all reads for the bait, averaged over …

Q: With chain 1 H4L as the variant, how does the screen value read?
A: 0.000482 average fractional NGS count over selection days 2 and 3 (reads of this peptide / all reads for the bait, averaged over …

Q: Which screen value does the source give for chain 1 H4P here?
A: 0.000821 average fractional NGS count over selection days 2 and 3 (reads of this peptide / all reads for the bait, averaged over …

Q: With chain 1 H4N as the variant, how does the screen value read?
A: 0.000308 average fractional NGS count over selection days 2 and 3 (reads of this peptide / all reads for the bait, averaged over …

Q: With chain 1 H4T as the variant, how does the screen value read?
A: 0.002 average fractional NGS count over selection days 2 and 3 (reads of this peptide / all reads for the bait, averaged over …

Q: For chain 1 H4S, which screen value is on record?
A: 0.0034 average fractional NGS count over selection days 2 and 3 (reads of this peptide / all reads for the bait, averaged over …

Q: How did the screen value turn out when chain 1 H4M was run?
A: 0.000847 average fractional NGS count over selection days 2 and 3 (reads of this peptide / all reads for the bait, averaged over …

Q: How did the screen value turn out when chain 1 H14V was run?
A: 0.00211 average fractional NGS count over selection days 2 and 3 (reads of this peptide / all reads for the bait, averaged over …

Q: Which screen value does the source give for chain 1 H14P here?
A: 0.000471 average fractional NGS count over selection days 2 and 3 (reads of this peptide / all reads for the bait, averaged over …

Q: For chain 1 H14I, which screen value is on record?
A: 0.00129 average fractional NGS count over selection days 2 and 3 (reads of this peptide / all reads for the bait, averaged over …

Q: How did the screen value turn out when chain 1 H14T was run?
A: 0.000601 average fractional NGS count over selection days 2 and 3 (reads of this peptide / all reads for the bait, averaged over …

Q: How did the screen value turn out when chain 1 H14M was run?
A: 0.00126 average fractional NGS count over selection days 2 and 3 (reads of this peptide / all reads for the bait, averaged over …

Q: How did the screen value turn out when chain 1 H14G was run?
A: 0.00396 average fractional NGS count over selection days 2 and 3 (reads of this peptide / all reads for the bait, averaged over …

Q: Which screen value does the source give for chain 1 H14W here?
A: 0.00227 average fractional NGS count over selection days 2 and 3 (reads of this peptide / all reads for the bait, averaged over …

Q: chain 1 H14Q was tested. Which screen value did it give?
A: 0.000199 average fractional NGS count over selection days 2 and 3 (reads of this peptide / all reads for the bait, averaged over …

Q: With chain 1 H14F as the variant, how does the screen value read?
A: 0.00117 average fractional NGS count over selection days 2 and 3 (reads of this peptide / all reads for the bait, averaged over …

Q: For chain 1 H14L, which screen value is on record?
A: 0.00317 average fractional NGS count over selection days 2 and 3 (reads of this peptide / all reads for the bait, averaged over …

Q: How did the screen value turn out when chain 1 T15F was run?
A: 0.00191 average fractional NGS count over selection days 2 and 3 (reads of this peptide / all reads for the bait, averaged over …

Q: For chain 1 T15D, which screen value is on record?
A: 0.000245 average fractional NGS count over selection days 2 and 3 (reads of this peptide / all reads for the bait, averaged over …

Q: How did the screen value turn out when chain 1 T15V was run?
A: 0.00407 average fractional NGS count over selection days 2 and 3 (reads of this peptide / all reads for the bait, averaged over …

Q: For chain 1 T15A, which screen value is on record?
A: 0.000886 average fractional NGS count over selection days 2 and 3 (reads of this peptide / all reads for the bait, averaged over …

Q: With chain 1 D13Y as the variant, how does the screen value read?
A: 0.00726 average fractional NGS count over selection days 2 and 3 (reads of this peptide / all reads for the bait, averaged over …

Q: With chain 1 D13S as the variant, how does the screen value read?
A: 0.00426 average fractional NGS count over selection days 2 and 3 (reads of this peptide / all reads for the bait, averaged over …

Q: Which screen value does the source give for chain 1 D13A here?
A: 0.00127 average fractional NGS count over selection days 2 and 3 (reads of this peptide / all reads for the bait, averaged over …

Q: With chain 1 D13L as the variant, how does the screen value read?
A: 0.00105 average fractional NGS count over selection days 2 and 3 (reads of this peptide / all reads for the bait, averaged over …

Q: chain 1 D13H was tested. Which screen value did it give?
A: 0.000247 average fractional NGS count over selection days 2 and 3 (reads of this peptide / all reads for the bait, averaged over …

Q: With chain 1 D13N as the variant, how does the screen value read?
A: 0.000525 average fractional NGS count over selection days 2 and 3 (reads of this peptide / all reads for the bait, averaged over …

Q: Which screen value does the source give for chain 1 T3W here?
A: 0.00105 average fractional NGS count over selection days 2 and 3 (reads of this peptide / all reads for the bait, averaged over …

Q: Which screen value does the source give for chain 1 T3Y here?
A: 0.000753 average fractional NGS count over selection days 2 and 3 (reads of this peptide / all reads for the bait, averaged over …

Q: With chain 1 T3V as the variant, how does the screen value read?
A: 0.000622 average fractional NGS count over selection days 2 and 3 (reads of this peptide / all reads for the bait, averaged over …

Q: For chain 1 T3E, which screen value is on record?
A: 0.00168 average fractional NGS count over selection days 2 and 3 (reads of this peptide / all reads for the bait, averaged over …

Q: chain 1 T3G was tested. Which screen value did it give?
A: 0.000204 average fractional NGS count over selection days 2 and 3 (reads of this peptide / all reads for the bait, averaged over …

Q: Which screen value does the source give for chain 1 T3S here?
A: 0.000431 average fractional NGS count over selection days 2 and 3 (reads of this peptide / all reads for the bait, averaged over …

Q: How did the screen value turn out when chain 1 F5T was run?
A: 7.7e-05 average fractional NGS count over selection days 2 and 3 (reads of this peptide / all reads for the bait, averaged over …

Q: For chain 1 E7I, which screen value is on record?
A: 0.000492 average fractional NGS count over selection days 2 and 3 (reads of this peptide / all reads for the bait, averaged over …

Q: Which screen value does the source give for chain 1 L12M here?
A: 0.000189 average fractional NGS count over selection days 2 and 3 (reads of this peptide / all reads for the bait, averaged over …

Q: For chain 1 L12I, which screen value is on record?
A: 0.000166 average fractional NGS count over selection days 2 and 3 (reads of this peptide / all reads for the bait, averaged over …

Q: For chain 1 L12A, which screen value is on record?
A: 0.000185 average fractional NGS count over selection days 2 and 3 (reads of this peptide / all reads for the bait, averaged over …

Q: With chain 1 A6M as the variant, how does the screen value read?
A: 0.00215 average fractional NGS count over selection days 2 and 3 (reads of this peptide / all reads for the bait, averaged over …

Q: chain 1 A6L was tested. Which screen value did it give?
A: 0.00496 average fractional NGS count over selection days 2 and 3 (reads of this peptide / all reads for the bait, averaged over …

Q: chain 1 A6E was tested. Which screen value did it give?
A: 0.000746 average fractional NGS count over selection days 2 and 3 (reads of this peptide / all reads for the bait, averaged over …

Q: How did the screen value turn out when chain 1 A6I was run?
A: 0.000155 average fractional NGS count over selection days 2 and 3 (reads of this peptide / all reads for the bait, averaged over …
